Reference: publication PMC2217211

Target: endogenous Xenopus type 1 inositol 1,4,5-trisphosphate receptor (Xenopus laevis (endogenous in oocytes)) (UniProt Q91908)
Assay: co-IP

recombinant rat type 3 inositol 1,4,5-trisphosphate receptor, Q63269 1-2670, sequence (Q63269 whole entry): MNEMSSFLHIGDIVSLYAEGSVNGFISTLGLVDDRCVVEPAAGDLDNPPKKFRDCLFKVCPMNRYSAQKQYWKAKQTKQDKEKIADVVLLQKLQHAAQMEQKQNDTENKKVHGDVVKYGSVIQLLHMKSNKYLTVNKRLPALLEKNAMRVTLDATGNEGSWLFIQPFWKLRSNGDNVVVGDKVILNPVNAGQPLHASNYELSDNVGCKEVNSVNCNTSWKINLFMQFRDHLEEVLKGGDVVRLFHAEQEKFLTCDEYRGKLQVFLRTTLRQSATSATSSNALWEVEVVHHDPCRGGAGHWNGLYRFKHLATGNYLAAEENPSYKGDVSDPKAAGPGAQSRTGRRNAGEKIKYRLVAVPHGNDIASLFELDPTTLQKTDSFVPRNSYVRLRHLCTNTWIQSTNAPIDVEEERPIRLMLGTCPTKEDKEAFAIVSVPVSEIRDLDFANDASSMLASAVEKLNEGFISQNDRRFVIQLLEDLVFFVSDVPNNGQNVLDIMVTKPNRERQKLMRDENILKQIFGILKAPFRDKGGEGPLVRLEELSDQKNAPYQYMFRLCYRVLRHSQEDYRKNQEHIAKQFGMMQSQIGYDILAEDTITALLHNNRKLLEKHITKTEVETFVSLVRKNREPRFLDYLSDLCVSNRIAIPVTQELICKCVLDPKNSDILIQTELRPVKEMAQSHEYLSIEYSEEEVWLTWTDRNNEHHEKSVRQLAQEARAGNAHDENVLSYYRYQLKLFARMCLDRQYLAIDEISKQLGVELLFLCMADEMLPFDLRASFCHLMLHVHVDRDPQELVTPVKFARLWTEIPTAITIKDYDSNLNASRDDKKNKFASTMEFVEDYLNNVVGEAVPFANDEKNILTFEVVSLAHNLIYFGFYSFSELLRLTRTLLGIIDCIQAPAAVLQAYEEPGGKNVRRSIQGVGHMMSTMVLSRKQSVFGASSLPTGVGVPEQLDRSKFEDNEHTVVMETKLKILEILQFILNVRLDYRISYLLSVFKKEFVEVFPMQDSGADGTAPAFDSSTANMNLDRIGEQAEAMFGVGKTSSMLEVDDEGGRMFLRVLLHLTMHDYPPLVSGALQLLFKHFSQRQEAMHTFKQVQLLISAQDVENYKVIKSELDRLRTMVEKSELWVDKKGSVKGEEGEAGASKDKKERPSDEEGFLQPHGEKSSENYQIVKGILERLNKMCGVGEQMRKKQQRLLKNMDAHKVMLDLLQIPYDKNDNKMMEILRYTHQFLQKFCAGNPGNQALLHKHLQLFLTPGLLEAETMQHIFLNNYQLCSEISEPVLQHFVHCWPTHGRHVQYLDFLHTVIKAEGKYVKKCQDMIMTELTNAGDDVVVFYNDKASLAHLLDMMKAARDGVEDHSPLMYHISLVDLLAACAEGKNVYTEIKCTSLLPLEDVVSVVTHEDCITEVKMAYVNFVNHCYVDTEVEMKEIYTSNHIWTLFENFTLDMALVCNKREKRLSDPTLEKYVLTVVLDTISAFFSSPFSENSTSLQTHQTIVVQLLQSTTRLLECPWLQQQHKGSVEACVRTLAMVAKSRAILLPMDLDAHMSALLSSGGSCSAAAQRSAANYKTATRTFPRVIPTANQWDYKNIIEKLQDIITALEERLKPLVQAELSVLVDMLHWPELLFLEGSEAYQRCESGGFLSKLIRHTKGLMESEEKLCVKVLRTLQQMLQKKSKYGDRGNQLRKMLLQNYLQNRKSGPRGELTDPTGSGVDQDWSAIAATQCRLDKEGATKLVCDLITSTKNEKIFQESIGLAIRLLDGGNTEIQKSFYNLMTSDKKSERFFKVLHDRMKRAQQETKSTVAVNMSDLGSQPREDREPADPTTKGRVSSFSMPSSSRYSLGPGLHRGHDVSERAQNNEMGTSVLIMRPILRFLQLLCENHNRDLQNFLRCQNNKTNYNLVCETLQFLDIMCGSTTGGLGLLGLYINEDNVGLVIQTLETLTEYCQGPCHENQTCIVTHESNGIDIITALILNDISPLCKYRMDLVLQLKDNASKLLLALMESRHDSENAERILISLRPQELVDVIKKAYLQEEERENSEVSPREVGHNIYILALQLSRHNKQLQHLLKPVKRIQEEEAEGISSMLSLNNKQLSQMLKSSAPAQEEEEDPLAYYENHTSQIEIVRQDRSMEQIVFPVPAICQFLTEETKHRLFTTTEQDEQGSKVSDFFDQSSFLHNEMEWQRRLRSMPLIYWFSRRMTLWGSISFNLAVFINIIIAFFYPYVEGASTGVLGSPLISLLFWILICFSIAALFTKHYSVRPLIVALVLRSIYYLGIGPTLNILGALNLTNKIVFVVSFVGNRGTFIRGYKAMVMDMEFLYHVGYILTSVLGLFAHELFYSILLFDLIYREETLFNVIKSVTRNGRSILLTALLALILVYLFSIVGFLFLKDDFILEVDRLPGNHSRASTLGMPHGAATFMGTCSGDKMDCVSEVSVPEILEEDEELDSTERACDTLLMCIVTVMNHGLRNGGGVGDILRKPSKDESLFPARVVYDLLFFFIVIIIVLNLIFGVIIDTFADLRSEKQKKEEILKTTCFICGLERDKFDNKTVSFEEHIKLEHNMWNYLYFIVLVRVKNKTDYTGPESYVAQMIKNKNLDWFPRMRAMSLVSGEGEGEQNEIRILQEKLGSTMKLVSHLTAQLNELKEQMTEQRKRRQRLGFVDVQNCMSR

Substance: recombinant rat type 3 inositol 1,4,5-trisphosphate receptor, Q63269 1-2670
- percent of expressed r-InsP3R-3 in heteroligomers with X-InsP3R-1: 7 to 10%
